Measured values taken from the supplement of paper PMC9170038.

Test system: K4 kissing-loop RNA reporter
Test: apparent KD of K4 kissing-loop reporter; higher = weaker reporter binding
Conditions: Eterna round: R107
Description: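 RNA-MaP round R107: designed RNA switches with theophylline, tryptophan, arginine or FMN aptamers are transcribed on-chip within common flanks. They are titrated with a labelled K4 kissing-loop RNA reporter in RNA-MaP buffer (100 mM Tris pH 7.5, 80 mM KCl, 4 mM MgCl2), without ligand or with the indicated ligand. Median apparent KD per design.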

[1] = input ligand: theophylline 20 uM
[2] = input ligand: tryptophan 2.4 mM
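Note: bound reporter read as fluorescence of individual clusters on recovered sequencing chips by microscopy, with normalized cluster intensities fitted with a binding model.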

Row | Sequence | apparent KD of K4 kissing-loop reporter (input ligand: FMN 200 uM) [nM] | apparent KD of K4 kissing-loop reporter (input ligand: arginine 13.2 mM) [nM] | apparent KD of K4 kissing-loop reporter (input ligand: none) [nM] | apparent KD of K4 kissing-loop reporter [1] [nM] | apparent KD of K4 kissing-loop reporter [2] [nM]
1 | UUAGAUCUUCUAGAUACCAGUCUGUGUAUCAAUGAUACACUUGACUGAGUGAUGUUCAGAGGCCCUUGGCAGCUAGAAGAUCAUU [AK1 SS Theophylline B] | 761 | 473 | 727 | 849 | 490
2 | GAUUCAGUGAUGUUGGAAGGCGAGCGGGAUACCAGCCAAGACUCAGGCCCUUGGCAGCCCACAUAUCCCAGGUAGAUAGUCGCUC [Same State - Theophylline A (Freestyle 11)] | 271 | 265 | 254 | 293 | 270
3 | UGUCAUUGGUCUGAUACCAGUUAGCGCGAUAAGCGCAAAACUGGAGUGAUGUUCCCAAAUAACCCUUGGCAGCAGACCGAUGACU [MAT - Same State Theophlline B - Mod of Eli - D13] | 337 | 155 | 235 | 189 | 176
4 | AUGGACUCUUCGGAGUCCGCCUUAAGGGAUACCAGUGAUGUUGGUCACCCUUGGCAGCCUAGAAAGGAAGCCACCAAAGGUGGCA [Omei v1 mod #OpenEnded #Sliding] | 105 | 114 | 128 | 160 | 101
5 | AAGUAGAUCAAGAUCUAGUAUCUAGAUCAACGAGGACCGGUACGGCCGCCACUCGAAUAAUAGAGUGAUGUUCUAAGAUCUACAA [AK1.4 SS Tryptophan A] | 898 | 716 | 994 | 968 | 445
6 | CGACGCCGGUCGGCCGCCACUCACAGCAGCCAGUGAUGUUGGAUUGUAGCGGAGUGAUGUUUCGCGAGGACCGGGACUGCAGUCG [Same State Tryptophan B GF 12] | 167 | 131 | 129 | 130 | 143
7 | UUGCCUUUGAGCGAUACCAGCAGCGUCGGCCUUAGAUUGGGAGGCAUGGCAAGUGAUGUUUGCCCUUGGCAGCGCGUAUAGUACA [theeternabot_exclusion_KL_Theo_B_7] | 197 | 320 | 459 | 439 | 219
8 | GGCAGUGAUGUUGCCAGUGGCAGAUGUGAAGGAGCGCGGUGAGACGCAGGUAGGUCGCACAUUGAAAUUGCUGUCACUAAAAUGC [#02 K4 Arginine A Exclusion] | 294 | 300 | 273 | 314 | 215
9 | GCCGUAGAUUGAAGGAGCGGUUCAUCAAUUCAAGUCGAGUGAUGUUCGACGAUUCUCAGUAACCAGGUAGGUCGCAAUCUACGGC | 175 | 142 | 150 | 171 | 143
10 | CAUACGCAUGGAGGAUAUGAGAUUUCUCAUAUUAUUUAAUAUUCUCAGUGAUGUUGAGAUAUAAACUCAGAAGGCCAUGUGUAUG [Ex FMN B 2] | 340 | 198 | 196 | 245 | 215
11 | AAAGAGUCACUCGAAGCCAUCGAAGAUGGGCGAGGACCGGUACGGCCGCCACUCGGAGUGAUGUUCCGAAGACUGUAAAAUAAAA [MatMod 11 - Jieux - Exclusion - Tryptophan A] | 273 | 242 | 451 | 362 | 355
12 | UCCUAGGUUCGUCGGCGAAAGCCCUGCGAAGGAGCGUGCGAAAGUACAGGUAGGUCGCGCAGUGAUGUUGCACCUAGGUAAUAAA [#07 K4 Arginine A Exclusion] | 905 | 191 | 319 | 892 | 375
13 | AAACAUCACUGGGAGUGAUGUUCUCAGUGACGAGGACCGGUACGGCCGCCACUCGCGAGAGAUAUAGUCUAGUAAUGACUGCAUU [Excl Tryptophan A V9] | 299 | 274 | 292 | 322 | 391
14 | AGGGACUCUUCGGAGUCCCGGUCAAGGGAUACCAGUGAUGUUGGUCACCCUUGGCAGCCCAGAAACCAAGCCACCAAAGGUGGCA [Omei KL Theo A Exc A v3] | 117 | 97.9 | 97.3 | 103 | 107
15 | UUGUAUACUUUUGUGUGCGAUGUGUAGCCGCGAGGACCGGUACGGCCGCCACUCGCUGAGAGUGAUGUUCUCUGGGCUAUAUAUC [Skye_SS_TA3] | 1100 | 924 | 1700 | 794 | 234
16 | AAUUUAUUAUCUGAUACCAGACUUUAUCUUGUUUAUAAGUCAAGUGAUGUUUGACUAUUAGUCCCUUGGCAGCAGUAUUUUUUAA [JR_Nu_SSTheophyB_Sub025] | 251 | 260 | 269 | 187 | 230
17 | AAGUCUCGUUAAUUCGUGGUUUCGAUCGAUACCAGUAGCGAGAGGUACCCUUGGCAGCGAAAUGAGUGAUGUUCAUGAAAGAAGA [KL-XTheoA11] | 101 | 124 | 111 | 153 | 87.1
18 | GUUACGCAUGGAAGGAGCGCGAAUUUAAUUAGUGAGUGAUGUUCACAUAAAAUGUAUAAUACGCAGGUAGGUCGCCAUGUGUAAC [whbob_Ex_Arginine_B_2th163] | 81.9 | 84 | 77.2 | 85.7 | 81.3
19 | UGAUACCAGACGGCCGCCACUACACCAGUCAAAGACUGGAUGUGAUGUCUGACCAGUGAUGUUGGUAGGACCGGGUCUGGUAUCU [TrypBX 6 #Palindromic #SwitchBubble #StaticStem] | 246 | 303 | 428 | 450 | 305
20 | CUAUCUUAAGAAGGAUAUUAUGUAACAAACGCAGGCGUAUUAGAAUCAGUGAUGUUGAAAUAGGUUUAAGAAGGUCUUAAAGAAA [theeternabot_sameState_KL_FMN_B_31] | 593 | 422 | 326 | 608 | 243
21 | AAUACCUGAGUGAUGUUCAGGGAAUCAGAAGGAGCGUCAAUUAUGACAGGUAGGUCGCUGAAUACAUGUGUGUAUACACAUGUAC [Arg A SS t4] | 217 | 189 | 278 | 243 | 229
